Results: the nanobody polyreactivity screen of Harvey et al. (2022)

Experiment: yeast display, Sf9 membrane polyspecificity reagent, FACS + sequencing; frameworks hold sequencing errors
Method in brief: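 Nanobodies from a synthetic yeast display library (Saccharomyces cerevisiae BJ5465), induced 36–48 hours with galactose, were stained 1 hour at 4 °C with 10% biotinylated, detergent-solubilized Sf9 membrane reagent, enriched on streptavidin microbeads, then FACS-sorted. Anti-HA (expression) and streptavidin (reagent binding) fluorescence set low and high (top ~1%) gates. Polyreactivity labels come from the gate of origin. Genes were colony-PCR amplified, MiSeq 2 × 250 sequenced and filtered by CDR length.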

Row | Sequence | polyreactivity (PSR sort gate)
1 | QVQLVESGGGLVQAGGSLRLSSAASGSIFRSNAMGWYRQAPGKERELVAAIDYSGTSTTYADSVKGRFTISRDNAKNTVYLQMNRLKPEDTAVYYCNADGYYRGYWSGYEYWGQGTQVTVSS | low polyreactivity
2 | QVQLVESGGGLVQAGGSLRLSCAASGRTFGYNAMGWYRQAPGKEREFVAAISGSGGRTYYADSVKGRFTISRDNAKNTVYLQMNSQKPEDTAVYYCAAGFGDGPGNGYYTRYSWDDDYWGQGTQVTVSS | low polyreactivity
3 | QVQLVESGGVLVQAGGSLRLSCAASGRTFWYNAMGWYRQAPGKEWELVAAISSTGGRTYYADSVKGRFTISRDNAKTTVYLQMNSLKPEDTAVYYCAARQLSSHYDYWGQGTQVTVSS | low polyreactivity
4 | QLQLVESVGGLDQAGGSLRLSCAASRSNFGPYAIGWYRQAPGKERELVAAITWSGDSTYYADSVKGRFTISRDNEKNTVYLQMNSLKPEDTAVYYCAAETFIWGKGTQVTVSS | low polyreactivity
5 | QVQLVESGGGLVQAGGSLRLSCAASGITLSNYAMGWYRQAPVKEREFVAALTRSGDSTYYADSVKGRFTISRDNAQNTVYLQMNSLKPEDTAVYYCPAEEHRYTEVYPTSTTDEYDYRGQGTQVTVSS | low polyreactivity
6 | QVQLVESGGGLVQAGGSLRLSCADSGFIFVVKAMGWYRQAPGKEREIVAVISSSTGSTYYADSVKGRFTISRDNAKNTVYLQLNSLKPEDTAVYSCAAASRRRRPLKRMYYWGQGTQVTVSS | low polyreactivity
7 | QVQLVESGGGLVQAGGSLRLSCAASGRIFYYYAMGWYRQAPGKERELVATISSSGGSTYYADSVRGRFTISRDNAKNTVYLQMNSLKPEDTAVYYCAARVPLWSRGRTTWPKSQYEYWGQGTQVTVSS | high polyreactivity
8 | QVQLLESGGGLVQAGRSLCLSCAASGSIIINAMGWYRQAPGKERELVATIRWRGGTTYYADSVKGRFTISRDNAKNTVYLQRNSLKPEDTAVYYCAADRSYYPDPRTTYGYNYWGQGTQVTVSS | low polyreactivity
9 | QVQLVESGGGLVQAGGSLRLSCAASGFIFSLYAMGWYRQAPGKERELVAVITWSDGRTYYADSVKGRFTISRDNAKNTVYLQMNSLKQEDTAVYYCAAADWITEYDYWGQGTQVTVSS | low polyreactivity
10 | QVRLVESGGGLVQEGGSLRLSCAASGSTFGDYPMGWYRQAPGKERELVAAITLTGGSTYYADSVKGRFTISRDNAKNTVYLQMNSLKPEDTAVYYCNTDVIRWVGGTWHRYYYWGQGTQVTVSS | low polyreactivity
11 | QVQLQESGGGLVQAGGRLSLSRAASGFISGTYCMGCYRQTPGQDREFVAGIGNGAITYYADSAKGCFTISRDNAKNAVYLQMNSLKQEETAVYYCAADGQWYYAPFRGGDYENDYWGQGTQVTVSS | low polyreactivity
12 | QVQLVESGGGLVQAGGSLRLSCAASGFTFRRYAMGWYRQAPGKERELVAVITTGGSTYYADSVKGRFTISRDNAKYTVYLQMNSLKPEDTAVYYCAARYYWYSQEYVMSSWWGDYWGLGTQVTVSS | high polyreactivity
13 | QVQLVESGGGLVQAGGSLRLSCAASGSTFSGYTMGWYRQAPGKEREFVAAISVSGGSTYYADSVKGRFTISRDNAKNTVYLQMNSLKPEDTAVYYCNTVTSGFLSYDYWGQGTQVTVSS | high polyreactivity
14 | QVQLVESGGGLVQAGGSLRLSCAASGRIFSPNAMGWYRQAPGKERELVAAITRGGSTNYADSVKGRFTISRDNAKNTVYLQMNSLKPEDTAVYYCAAQLAKTIRGRGYNSWGQGTQVTVSS | low polyreactivity
15 | QVQLVESGGGLGQAGGSLRLSCAASGSIFEGNGMGWYRPAPGKERELVAAITFRSGSTYYADSVKGRFTISRDNAKNTVYLQMNSLKPEDTAVYYCAADEYYQVSAYDYWGQGTQVTVSS | low polyreactivity
16 | QVQLVESGGGLVQAGGSLRLSCAASGRTFSYNAMGWYRQAPGKERELVASISSSGTSTSYADSVKGRFTISRDNAKNTVYLQMNSLKPEDTAVYYCATVRYPYWYSGPQNSRGYWGQGTQVTVSS | high polyreactivity
17 | QVQLVESGVGLVQAGGSLRLSCAASGSTFWSYTMGWYRQAPGKERELVARIRTTGGSTYADSVKGRFTISRDNAKNTVYLQMNSLKPEDTAVYYCAKEGWLRYYPWYGGDYWGQGTQVTVSS | high polyreactivity
18 | QVQLVESGGGLVQAGGSLRLSCAASGSTFYEYAMGWYRQAPGKERELVAAISWSDVDTYYADSVKGRFTISRDNAKNTVYLQMNSLKPEDTAVYYCAAEWYHPYTQEMDYWGQGTQVTVSS | high polyreactivity
19 | QVQLVESGGGLVQAGGSLRLSCAASGSIFPTYAMGWYRQAPGKERELVAAISWDGDITYYADSVKGRFTISRDHAKNTVYLQMNSLKPEDTAVYYCNASLFIEIYSFQYDDHFAEYGYWGQGTQVTVSS | high polyreactivity
20 | QVQLVESGGGLVQAGGTLRLSCAASGRTFPSNAMGWYRQAPGKEREFVASITYSGGRTYYADSVKGRFTISRDNAKNTVYLQMNSLKPEDTAVFYCATARYRYHYYSWGQGTQVTVSS | high polyreactivity
21 | QVQLVESGGGLVQAGGSLRLSCAASGSTLGQYVMGWYRQAPGKERELVAAISRRGGRTNYADSVKGRFTISRDNAKNTVYLQMNSLNPEDTAVYYCAAKFRIYRPSKYYYWGQGTQVTVSW | high polyreactivity
22 | QVQLVESGGGLVQAGGSLRLSCAASGSTFLSYAMGWYRQAPGTERELVAGIDWSTGDTYYADSEKGRFTISRDNAKNTVYLQMNSLKPEDTAVYYCNKANLYRFWEIDYWGQGTQVTLSS | high polyreactivity

Row | Sequence | polyreactivity (PSR sort gate)
23 | QGQLGEYGGGLVQAGGSLRLSCAAYGRTVYYYAMGWYRQEPGKDREFVAGITATGSSTYYADSVKGRFTISRDNAKNTVYLQMNSLKPEDTAVYFCAADRYTTYSGQWSYPYDYWGQGTQVTVSS | low polyreactivity
24 | QVQLVESGGGLVQAGVSLRLSCAASGSIFSYNAMGWYRQAPGKERELVAAINNGGSTYYADSVKGRFTISRDNAKNTVYLQMNSLKPEDTAVYYCAAQSGHYAEYNYWGQGTQVTVSS | high polyreactivity
25 | QVHLVESGGGLVQAGRSLRLSCAASGITFVKYAMGCYIQAPGKEMELVATISNSGGSTYYSDSVKGRFTISRDNAKNSVYLQMNSLKPEETAVYYCNALYLVYCDDSSPSLVSEYGYWGQGTQVTVSS | low polyreactivity
26 | QVQLVESGGGLVQAGGSLRLSCAASGRIFPEYTMGWYRQAPGKERELVAAISKRGSSTNYADSVKGRFTISRDNAKNTVYLQMNSLKPEDTAVYYCAARGYTLSYVDMYYWGQGTQVIVSS | high polyreactivity
27 | QDHLVESGGGLVQAGGSLRLSCAASRRTLLRYAMGWYRQAPGKERELVAAISSSGGRTYYADSVKGRFTISRDNAKNTVYLQMNSLKPEDTAVYYCAAKSSYVGHDYWGQGTQVTVSS | high polyreactivity
28 | QVQLVESGGGLVQAGGSLRLSSAASGRIFQRYAMGCYRQAPGKERELVAAISGSGGRTYYADSVKGRFTISRDNAKNTVYLQLNSLKPDDSAVYYCAAYPSYYADSGLRYDYWGQGTQVTVSS | high polyreactivity
29 | QVQLEESGGGLVQAGGSLRLSCAASGRTFALYAMGWYRQAPGKERELVASISWRGGSTYYADSVKGRFTISRDNAKNTVYLQMNSLKPEDTAVYYCAADTWSYGPLNYRLEYWGQGTQVTVSS | low polyreactivity
30 | QVQLVESGGGLVQAGGSLRLSCAASGRIFPWYAMGWYRQAPGKERALVAAINWRAGRTYYADSVKGRFTISRDNAKNTVYLQMNSLKPEDTAVYYCAAETYSSGEWYDYWGQGTQVTVSS | high polyreactivity
31 | QVQLVESGGGLVQAGGSLRLSCGASGRTFSYYPMGWYRQAPGKERELVAAITSSGGRTYYADSVKGRFTISRDNAKNTVYLQMNSLKPEDTAVYYCAKELVKRYYWGQGTQVTVSS | high polyreactivity
32 | QVQLVESGGRLVQAGGSLRLSCAASGSIFFLYAKGWYRQAPGKERELVAAISGGGGSTYYADSVKGRFTISRDIAKYTVYLLMNSLKPEDTAVYYCAALSKTRGGFWGQGTQVTVSS | high polyreactivity
33 | QVQLVESGGGLVQAGGSLRLSCAASGRTFSSYTMGWYRQAPGKEREMVAAISKSGASTYYADSVKGRFTISRDNAKNTVYLQMNSLKPEDTAVYYLAARAYPFKIDGYWGQGTQVTVSS | high polyreactivity
34 | QVHLVESGGGLVQAGGSLRLSCAASGSIFDYYAMGWYRQAPGKERELVAAITYDSGRTYYADSVKGRFTNSRDNAKNTVYLQMYSLKPEDTAVYYCNKYSYSWRYCPGTSGYDYWGQGTQVTVSS | low polyreactivity
35 | QVHLVESGGGLVQAGGSLRLSCAASGRIFGYYAMGWYRQAPGKERELVAAISYSTGGTSTYADSVKGRFTISRDNAKNTVYLQMNSLKPEDTAVYYCAVRRQYRRAYSFSQSRYDYWGQGTQVTVSS | high polyreactivity
36 | QVQLEESGGGLVQAGGSLRLSCAASGSTFYAYAMGWYRQAPGKERELVAAIDSGGSTYYADSVKGRFTSSRDNAKNTVYLQMNSLKPEDTAVYYCAVRHRYTRAFWGRDYWGQGTQVTVSS | low polyreactivity
37 | QVQLVESGGGLVQAGGSLRLSCAASGSIFAHNAMGWSRQAPGKESEMVAAISSGGSTNYADSVKGRFTISRDNAKNTVYLQMNSLKPEDTAVDYCAKSIDGWYWRRRRYDYWGQGTQVTVSS | low polyreactivity
38 | QVQLVESGGGLVQAGGSLRLSWAAYGRIVKYAMGWYREPPGKERELVAAISGSGGTTYYADSVKGRLTISRDNAKNTVEFHMKSLKPEDTAVYYCAASRPRPPSSRRMVYWGQGSQVTVSS | high polyreactivity
39 | QVQLVESGGGLVQAGGSLRLSFAASGGTFYTYVMGWYRQAPGKERELVAAISGSGGSTYYADSVKGRFTISRDNAKNTVYLQMNSLKPEDTAVYYCAAEGFVTWYRQGQVYYWGQGTQVTVSS | high polyreactivity
40 | QVQLVESGGGLVQAGGSLRLSSAASGLTFYVYAMGWYRQGPGKEREWVARITWSGGSTYYADSVKGRFTISRDHAKNTVYLQMNSLKPEDTAVYYCAAEWSEESDYWGQGTQVTVSS | low polyreactivity
41 | QVQLVESGGGLVQAGGSLRLSCAASGIILLRYTMGWYRQAPGKERELVAAISRSAGRTYYADSVKGRFTISRDNAKNTVYLQMNSLKPEDTAVYYCNKASWYNGEIDYWGQVTQVTVSS | high polyreactivity
42 | QVQLVESGGGLVQAGGSLRLSCAASGLTFGYYAMGWYRQAPGKERELVAGISGSGGSTYYADSVKGRFTISRDNAKNTLYLQMNSLKPEDTAVYYCNAEARYTGFAYSYFNSDYWGQGTQVTVSS | low polyreactivity
43 | QVQLVESGGGLVQAGGSLRLSCAASGITFYSYAMGWYRQAPGKEREFVAAINWRGGNTYYADSVKGRFTISRDNAKNTVYLQMNSLKPEDTAFYYCARDGIYAYWVDPYDYWGQGTQVTVSS | high polyreactivity
